Assay results published in the supplement of paper PMC10567573.

B1: ZBTB22 (parent)
chain: FSSSSQEAFAASAVGSGERRGGGP
B2: PCDHGA10 (parent)
chain: FHELQMQVTASDSGDPPLSSNVSL

Variants of: B1
Assay: protein stability index of a GFP-peptide fusion (GPS, HEK-293T) (PSI 1-6); higher = more stable
Details: c terminus: a fixed tail appended
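Also: lentivirally expressed fusions sorted by FACS into six bins by GFP to DsRed ratio, PSI derived from sequencing read proportions per bin multiplied by bin number.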

Variant | protein stability index
FSSSSQEAFAASAVGSGEKRGGGP | 3.41
FSSSSQEAFAASAVGSGEVRGGGP | 3.46
FSSSSQEAFAASAVGSGEQRGGGP | 3.47
FSSSSQEAFAASAVGSGEARGGGP | 3.43
FSSSSQEAFAASAVGSGELRGGGP | 2.87
FSSSSQEAFAASAVGSGEPRGGGP | 3.36
FSSSSQEAFAASAVGSGERRVGGP | 2.84
FSSSSQEAFAASAVGSGERRTGGP | 2.94
FSSSSQEAFAASAVGSGERRMGGP | 3.4
FSSSSQEAFAASAVGSGERRWGGP | 2.31
FSSSSQEAFAASAVGSGERRKGGP | 2.69
FSSSSQEAFAASAVGSGERRDGGP | 4.06
FSSSSQEAFAASAVGSGERMGGGP | 3.3
FSSSSQEAFAASAVGSGEREGGGP | 4.12
FSSSSQEAFAASAVGSGERGGGGP | 3.14
FSSSSQEAFAASAVGSGERCGGGP | 2.9
FSSSSQEAFAASAVGSGERWGGGP | 2.21
FSSSSQEAFAASAVGSGERAGGGP | 3.42
FSSSSQEAFAASAVGSGERFGGGP | 2.97
FSSSSQEAFAASAVGSGERSGGGP | 3.68
FSSSSQEAFAASAVGSGERYGGGP | 3.3
FSSSSQEAFAASAVGSGERRGIGP | 3.3
FSSSSQEAFAASAVGSGERRGHGP | 3.83

Variant | protein stability index
FSSSSQEAFAASAVGSGERRGLGP | 3.65
FSSSSQEAFAASAVGSGERRGVGP | 3.33
FSSSSQEAFAASAVGSGERRGQGP | 3.83
FSSSSQEAFAASAVGSGERRGKGP | 2.15
FSSSSQEAFAASAVGSGERRGWGP | 2.19
FSSSSQEAFAASAVGSGERRGAGP | 3.6
FSSSSQEAFAASAVGSGERRGDGP | 3.11
FSSSSQEAFAASAVGSGERRGGGG | 2.6
FSSSSQEAFAASAVGSGERRGGGD | 3.89
FSSSSQEAFAASAVGSGERRGGGA | 3.5
FSSSSQEAFAASAVGSGERRGGGW | 2.22
FSSSSQEAFAASAVGSGERRGGGH | 3.75
FSSYSQEAFAASAVGSGERRGGGP | 3.74
FSSFSQEAFAASAVGSGERRGGGP | 2.88
FSSQSQEAFAASAVGSGERRGGGP | 3.09
FSSRSQEAFAASAVGSGERRGGGP | 2.57
FSSNSQEAFAASAVGSGERRGGGP | 3.52
FFSSSQEAFAASAVGSGERRGGGP | 4.08
FKSSSQEAFAASAVGSGERRGGGP | 4.86
FESSSQEAFAASAVGSGERRGGGP | 5.12
FNSSSQEAFAASAVGSGERRGGGP | 4.13
FRSSSQEAFAASAVGSGERRGGGP | 4.52
FASSSQEAFAASAVGSGERRGGGP | 2.29

Variant | protein stability index
FSSSSQENFAASAVGSGERRGGGP | 4.21
FSSSSQEGFAASAVGSGERRGGGP | 4.44
FSCSSQEAFAASAVGSGERRGGGP | 2.97
FSYSSQEAFAASAVGSGERRGGGP | 3.71
FSLSSQEAFAASAVGSGERRGGGP | 4.05
FSWSSQEAFAASAVGSGERRGGGP | 2.86
FSQSSQEAFAASAVGSGERRGGGP | 4.07
FSSSSQEAFAASAVGSGERRGGWP | 1.43
FSSSSQEAFAASAVGSGERRGGQP | 3.26
FSSSSQEAFGASAVGSGERRGGGP | 3.75
FSSSSQEAFRASAVGSGERRGGGP | 3.33
FSSSSQEAFAASAVGWGERRGGGP | 2.17
FSSSSQEAFAASAVGAGERRGGGP | 3.29
FSSSSQEAFAASAVGVGERRGGGP | 3.52
FSSSSQEAFAASAVWSGERRGGGP | 2.72
FSSSSQEAFAASAVHSGERRGGGP | 3.24
FSSSSQEAFAASAVPSGERRGGGP | 3.58
FSSSSQEAFAASAVYSGERRGGGP | 2.58
FSSSSQEAFAASAVFSGERRGGGP | 2.02
FSSSSHEAFAASAVGSGERRGGGP | 2.81
FSSSSMEAFAASAVGSGERRGGGP | 2.85
FSSSSTEAFAASAVGSGERRGGGP | 2.77
FSSSSNEAFAASAVGSGERRGGGP | 3.32

Variant | protein stability index
FSSSSQSAFAASAVGSGERRGGGP | 2.57
FSSSSQRAFAASAVGSGERRGGGP | 2.36
FSSSSQAAFAASAVGSGERRGGGP | 2.09
FSSSSQTAFAASAVGSGERRGGGP | 2.78
FSSSSQCAFAASAVGSGERRGGGP | 1.64
FSSSCQEAFAASAVGSGERRGGGP | 2.79
FSSSIQEAFAASAVGSGERRGGGP | 3.62
FSSSMQEAFAASAVGSGERRGGGP | 2.4
FSSSSQEAFAASAVGSGGRRGGGP | 3.84
FSSSSQEAFAASAVGSGPRRGGGP | 2.97
FSSSSQEAFAASAVGSGNRRGGGP | 2.55
FSSSSQEAFAASAVGSGARRGGGP | 3.48
FSSSSQEAFAASAVGSGMRRGGGP | 2.96
FSSSSQEAFAASAVGSGIRRGGGP | 2.36
FSSSSQEAFAASAVGSGYRRGGGP | 2.69
FSSSSQEAFAAEAVGSGERRGGGP | 3.58
FSSSSQEAFAAMAVGSGERRGGGP | 2.63
FSSSSQEAFAADAVGSGERRGGGP | 3.48
FSSSSQEAFAATAVGSGERRGGGP | 3.02
FSSSSQEAFAACAVGSGERRGGGP | 2.54
FSSSSQEAFAAIAVGSGERRGGGP | 2.26
FSSSSQEAFAASAVGSYERRGGGP | 3.45
HSSSSQEAFAASAVGSGERRGGGP | 4.75

Variant | protein stability index
DSSSSQEAFAASAVGSGERRGGGP | 5.7
MSSSSQEAFAASAVGSGERRGGGP | 5.13
FSSSSQEAFAASAAGSGERRGGGP | 3.76
FSSSSQEAFAASADGSGERRGGGP | 4.5
FSSSSQEAFAASACGSGERRGGGP | 3.36
FSSSSQEAFAASAYGSGERRGGGP | 2.76
FSSSSQEASAASAVGSGERRGGGP | 5.01
FSSSSQEAAAASAVGSGERRGGGP | 5.51
FSSSSQEAYAASAVGSGERRGGGP | 3.56
FSSSSQEAHAASAVGSGERRGGGP | 4.66
FSSSSQEAGAASAVGSGERRGGGP | 4.56
FSSSSQEAKAASAVGSGERRGGGP | 5.2
FSSSSQEAQAASAVGSGERRGGGP | 5.09
FSSSSQEAFAASLVGSGERRGGGP | 3.13
FSSSSQEAFAASQVGSGERRGGGP | 3.28
FSSSSQEAFAASPVGSGERRGGGP | 3.43
FSSSSQEAFANSAVGSGERRGGGP | 3.88
FSSSSQEAFAHSAVGSGERRGGGP | 3.02
FSSSSQEAFAESAVGSGERRGGGP | 3.85
FSSSSQEAFAYSAVGSGERRGGGP | 3.13
FSSSSQEAFAFSAVGSGERRGGGP | 2.19
FSSSSQEAFACSAVGSGERRGGGP | 1.95

Variants of: B2
Assay: as above
Details: c terminus: a fixed tail appended

Variant | protein stability index
FHTLQMQVTASDSGDPPLSSNVSL | 1.82
FHILQMQVTASDSGDPPLSSNVSL | 2.38
FHALQMQVTASDSGDPPLSSNVSL | 1.91
FHKLQMQVTASDSGDPPLSSNVSL | 2.21
FHHLQMQVTASDSGDPPLSSNVSL | 1.75
FHLLQMQVTASDSGDPPLSSNVSL | 1.92
FHWLQMQVTASDSGDPPLSSNVSL | 2.54
FHCLQMQVTASDSGDPPLSSNVSL | 2.53
FHMLQMQVTASDSGDPPLSSNVSL | 2.31
FHFLQMQVTASDSGDPPLSSNVSL | 2.39
FHVLQMQVTASDSGDPPLSSNVSL | 1.6
FHDLQMQVTASDSGDPPLSSNVSL | 2.07
FHRLQMQVTASDSGDPPLSSNVSL | 1.85
FHSLQMQVTASDSGDPPLSSNVSL | 1.59
FHYLQMQVTASDSGDPPLSSNVSL | 2.26
FHNLQMQVTASDSGDPPLSSNVSL | 1.7
FHQLQMQVTASDSGDPPLSSNVSL | 1.85
FHPLQMQVTASDSGDPPLSSNVSL | 1.97
FHGLQMQVTASDSGDPPLSSNVSL | 2.69
FHEHQMQVTASDSGDPPLSSNVSL | 2.87
FHEVQMQVTASDSGDPPLSSNVSL | 2.84
FHENQMQVTASDSGDPPLSSNVSL | 3.6
FHEEQMQVTASDSGDPPLSSNVSL | 4.19
FHESQMQVTASDSGDPPLSSNVSL | 3.46
FHETQMQVTASDSGDPPLSSNVSL | 2.97

Variant | protein stability index
FHEPQMQVTASDSGDPPLSSNVSL | 2.57
FHEDQMQVTASDSGDPPLSSNVSL | 3.84
FHEMQMQVTASDSGDPPLSSNVSL | 2.24
FHEIQMQVTASDSGDPPLSSNVSL | 2.28
FHEKQMQVTASDSGDPPLSSNVSL | 2.73
FHEGQMQVTASDSGDPPLSSNVSL | 2.67
FHERQMQVTASDSGDPPLSSNVSL | 2.77
FHEQQMQVTASDSGDPPLSSNVSL | 3.36
FHEFQMQVTASDSGDPPLSSNVSL | 1.39
FHEAQMQVTASDSGDPPLSSNVSL | 2.76
FHECQMQVTASDSGDPPLSSNVSL | 2.73
YHELQMQVTASDSGDPPLSSNVSL | 2.78
DHELQMQVTASDSGDPPLSSNVSL | 4.91
WHELQMQVTASDSGDPPLSSNVSL | 3.81
MHELQMQVTASDSGDPPLSSNVSL | 4.06
GHELQMQVTASDSGDPPLSSNVSL | 4.74
NHELQMQVTASDSGDPPLSSNVSL | 4.61
QHELQMQVTASDSGDPPLSSNVSL | 4.62
PHELQMQVTASDSGDPPLSSNVSL | 4.8
LHELQMQVTASDSGDPPLSSNVSL | 4.5
THELQMQVTASDSGDPPLSSNVSL | 4.57
KHELQMQVTASDSGDPPLSSNVSL | 4.51
VHELQMQVTASDSGDPPLSSNVSL | 4.11
AHELQMQVTASDSGDPPLSSNVSL | 4.58
CHELQMQVTASDSGDPPLSSNVSL | 3.83

Variant | protein stability index
EHELQMQVTASDSGDPPLSSNVSL | 5.2
HHELQMQVTASDSGDPPLSSNVSL | 4.61
SHELQMQVTASDSGDPPLSSNVSL | 5.08
IHELQMQVTASDSGDPPLSSNVSL | 3.74
RHELQMQVTASDSGDPPLSSNVSL | 4.66
FPELQMQVTASDSGDPPLSSNVSL | 3.99
FKELQMQVTASDSGDPPLSSNVSL | 3.84
FMELQMQVTASDSGDPPLSSNVSL | 2.81
FIELQMQVTASDSGDPPLSSNVSL | 1.88
FFELQMQVTASDSGDPPLSSNVSL | 2.21
FGELQMQVTASDSGDPPLSSNVSL | 3.94
FRELQMQVTASDSGDPPLSSNVSL | 3.85
FSELQMQVTASDSGDPPLSSNVSL | 3.83
FWELQMQVTASDSGDPPLSSNVSL | 1.78
FAELQMQVTASDSGDPPLSSNVSL | 3.07
FNELQMQVTASDSGDPPLSSNVSL | 4.47
FVELQMQVTASDSGDPPLSSNVSL | 1.92
FTELQMQVTASDSGDPPLSSNVSL | 2.81
FEELQMQVTASDSGDPPLSSNVSL | 4.28
FYELQMQVTASDSGDPPLSSNVSL | 2.31
FQELQMQVTASDSGDPPLSSNVSL | 3.43
FCELQMQVTASDSGDPPLSSNVSL | 2.11
FDELQMQVTASDSGDPPLSSNVSL | 4.49
FLELQMQVTASDSGDPPLSSNVSL | 2.51
